This test deals with SEL1L S658P, endogenous, liver of knock-in mice (mouse (endogenous in liver)) (UniProt Q9Z2G6). The experiment in a line: co-IP.
Sequence of UniProt Q9Z2G6 (Q9Z2G6 22-790, stated change not applied): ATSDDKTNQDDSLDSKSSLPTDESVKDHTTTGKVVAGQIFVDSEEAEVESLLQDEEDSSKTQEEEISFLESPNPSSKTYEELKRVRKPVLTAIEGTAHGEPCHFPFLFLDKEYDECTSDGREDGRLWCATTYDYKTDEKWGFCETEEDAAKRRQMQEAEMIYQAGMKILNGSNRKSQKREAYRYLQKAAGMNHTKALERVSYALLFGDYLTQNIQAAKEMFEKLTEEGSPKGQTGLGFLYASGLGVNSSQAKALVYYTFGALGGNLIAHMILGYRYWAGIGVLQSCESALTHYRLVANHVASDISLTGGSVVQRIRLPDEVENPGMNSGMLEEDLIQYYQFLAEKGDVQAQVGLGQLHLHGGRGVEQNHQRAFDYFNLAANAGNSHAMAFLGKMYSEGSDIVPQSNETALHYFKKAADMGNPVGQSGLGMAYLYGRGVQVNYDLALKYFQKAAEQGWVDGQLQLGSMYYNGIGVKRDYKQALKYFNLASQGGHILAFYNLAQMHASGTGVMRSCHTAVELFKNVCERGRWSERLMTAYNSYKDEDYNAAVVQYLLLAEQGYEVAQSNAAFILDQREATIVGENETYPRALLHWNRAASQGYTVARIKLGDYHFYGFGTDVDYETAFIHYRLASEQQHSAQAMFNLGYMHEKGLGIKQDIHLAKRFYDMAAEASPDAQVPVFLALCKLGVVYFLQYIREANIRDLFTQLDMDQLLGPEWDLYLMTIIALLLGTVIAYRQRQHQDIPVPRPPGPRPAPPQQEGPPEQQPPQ

“HRD1, endogenous, mouse liver (from UniProt Q9DBY1 1-612) (natural protein)” showed a fold reduction of co-precipitated HRD1 against WT livers of 5 fold.

Source of the values: doi:10.1101/2023.04.13.536796.
